Like-named read-outs stand apart in the source and are kept apart here.
B1: KRC tr: truncated KRC, amino acid residues 204 to 1055 of SEQ ID NO:2 (protein, listed as Homo sapiens)
chain: PSVLQKHIRSHTGERPYPCGPCGFSFKTKSNLYKHRKSHAHRIKAGLASGMGGEMYPHGLEMERIPGEEFEEPTEGESTDSEEETSATSGHPAELSPRPKQPLLSSGLYSSGSHSSSHERCSLSQSSTAQSLEDPPPFVEPSSEHPLSHKPEDTHTIKQKLALRLSERKKVIDEQAFLSPGSKGSTESGYFSRSESAEQQVSPPNTNAKSYAEIIFGKCGRIGQRTAMLTATSTQPLLPLSTEDKPSLVPLSVPRTQVIEHITKLITINEAVVDTSEIDSVKPRRSSLSRRSSMESPKSSLYREPLSSHSEKTKPEQSLLSLQHPPSTAPPVPLLRSHSMPSAACTISTPHHPFRGSYSFDDHITDSEALSRSSHVFTSHPRMLKPQPAIELPLGGEYSSEEPGPSSKDTASKPSDEVEPKESELTKKTKKGLKTKGVIYECNICGARYKKRDNYEAHKKYYCSELQIAKPISAGTHTSPEAEKSQIEHEPWSQMMHYKLGTTLELTPLRKRRKEKSLGDEEEPPAFESTKSQFGSPGPSDAARNLPLESTKSPAEPSKSVPSLEGPTGFQPRTPKPGSGSESGKERRTTSKEISVIQHTSSFEKSDSLEQPSGLEGEDKPLAQFPSPPPAPHGRSAHSLQPKLVRQPNIQVPEILVTEEPDRPDTEPEPPPKEPEKTEEFQWPQRSQTLAQLPAEKAPPKKKRLRLAEMAQSSGESSFESSVPLSRSPSQESNVSLSGSSRSASFERDDHGKAEAPDPSSDMRPKPLGTHMLTVPSHHPHAREMRRSASEQSPNVSHSAHMTETRSKSFDYGSLSLTGPSAPAPVAPPAGEAPPERRKCFLVRSPSLSRPP

Experiments:
AP-1 = AP-1 luciferase reporter in Jurkat cells, KRC-enhanced transactivation after PMA plus ionomycin; assay type: cell-based, human; details: pretreated with Rottlerin (10 μM), PMA plus ionomycin 6 hours
Procedure: FIG. 20(A) Jurkat cells were transiently transfected with AP-1 Luciferase reporter along with KRC and RasN17 DN vectors. 24 hours later cells were pretreated with Rottlerin (10 μM) and stimulated for 6 hours with PMA plus ionomycin. Luciferase activity was measured as above. FIG. 20(B) Jurkat cells were transfected with a GAL4 Luciferase reporter along with a GAL4 DNA binding domain, GAL4-ATF2, or GAL4-ELK1 with or without KRC. 24 hours later, cells were stimulated with PMA plus ionomycin and analyzed for Luciferase activity as above. FIG. 20(C) Jurkat cells were transiently transfected with FLAG-JNK2, and either Vector, KRC, or MKK7. 48 hours later, cells were stimulated with PMA plus ionomycin for 6 hours and JNK activity was determined by immunoprecipitation/kinase assay. Equal amounts of FLAG-Jnk2 protein were immunoprecipitated, as judged by anti-FLAG western blot (lower panel).
For each transfection, 5×10^6 Jurkat cells were incubated with either IL2-Luc, NFAT/AP1-Luc or AP1-Luc reporter DNA together with pEF vector or pEF-KRC and CMV-βGAL as normalization control in 0.4 ml of RPMI and transfected by electroporation (260 v, 975 uF). Transfected cells were cultured at 37° C. for 20 h in RPMI 1640 medium (Gibco BRL) supplemented with 10% fetal bovine serum. Transfected cells were stimulated with PMA (50 ng/ml) and ionomycin (2 uM) for 6 hours prior to luciferase (Promega) and β-galactosidase assays (Galacton-PLUS substrate system, TROPIX, Inc).

JNK = JNK in vitro kinase assay after transfection of 293 cells; assay type: cell-based, human; details: 293 cells cotransfected with TRAF2, 24 hours
Procedure: Inhibition of TRAF2 (A) and TNFα (B, C) mediated JNK/SAPK activation by ectopic expression of KRC. (A) 293 T cells were transfected with 400 ng of TRAF2 and 2 μg of the indicated expression vector. Twenty-four hours after the transfection, the cells were harvested and lysed, and the endogenous JNK was precipitated with 5 μg of GST-cJUN (1-79) for 4 hours. JNK activity was determined by using GST-cJUN (1-79) as a substrate. (B,C) 293 T cells were cotransfected with vectors encoding HA-tagged JNK2 (500ng) and the indicated expression vector (2 μg). Twenty-four hours after the transfection cells were stimulated for 10 min with 10 ng/ml of TNFα and cells harvested at varying time points. JNK activity was assayed with GST-cJUN (1-79) as substrate.
Anti-HA or anti-FLAG immunoprecipitates were used for immune complex kinase assays that were performed at 30° C. for 30 min with 1 μg of substrate, 10 μCi of γ^32 P ATP, and 10 μM ATP in 30 μl of kinase buffer (20 mM HEPES, pH 7.4, 10 mM MgCl2, 25 mM β-glycerophosphate, 50 μm NA3VO4, and 50 μm DTT). The substrate was GST-c-JUN.

NFκB = NFκB luciferase reporter transfection assay in 293T cells; assay type: cell-based, human
Procedure: FIGS. 2(A)-2(C) depicts KRC preventing TRAF-dependent NFkB activation. Inhibition of TRAF2 (FIG. 2(A)), TRAF5 (FIG. 2(B)) and TRAF6 (FIG. 2(C)) mediated activation of NFkB by ectopically expressed KRC. 293 T cells (3×10^5 ) were transfected with 25 ng of NFkB luciferase reporter plasmid, 50 ng of CMVβGal and 1 μg of each indicated plasmid and 24 hours post transfection cells were harvested. Data from at least five experiments normalized for β galactosidase activity are shown. Vec refers to the empty MYC vector without the addition of TRAFs.
293 T cells (3×10^5 ) were transfected with 25 ng of NFκB luciferase reporter plasmid, 50 ng of CMVβGal and 1 μg of each indicated plasmid and 24 hours post transfection cells were stimulated for 4 hours with 10 ng/ml of TNFα. (A) KRC and KRC tr (B) dominant negative and antisense KRC (C) antisense KRC in the presence of exogenous TRAF2. Data from at least five experiments normalized for β galactosidase activity are shown.
HEK293 cells ([…] per well) were seeded in 6 well plates, and 12 h later cells were transfected with EFECTENE™ (Qiagen) with 25 ng of a 2XNFκB-luciferase (Luc) reporter gene plasmid and 0.5 μg of the indicated TRAF and KRC expression vectors. Total amounts of transfected DNA were kept constant by supplementing with control empty expression vector plasmids as needed. Cell extracts were prepared 24 h after transfection, and reporter gene activity was determined via the luciferase assay system (PROMEGA). PRSV-βGal vector (50 ng) was used to normalize for transfection efficiency by measuring β galactosidase activity using the Galacton-PLUS substrate system (TROPIX, Inc.). Whenever indicated, the cells were treated for 4 hours with TNFα or IL-1 (10 ng/ml). To generate stable transfectants, EFECTENE™ mediated transfection of the RAW cell line was performed and clones were selected and maintained in complete medium supplemented with G418 (2 mg/ml).

NIH 3T3 cells = experiment: β-galactosidase cotransfection apoptosis assay in 3T3 cells; assay type: cell-based; details: TNFα 20 ng/ml
Procedure: 3T3 cells were cotransfected with CMV lacZ vector (300 ng per plate) and either empty expression vector or the expression vectors indicated (2 μg of each). Half of the transfected cultured cells were treated with TNFα (20 ng/ml) at 12 hours after the transfection and the other half left untreated. All the cells were fixed and stained at 36 hours after the transfection. The number of blue cells in each transfection was determined by counting six different fields. A representative experiment of three performed is presented.
β-galactosidase cotransfection assays for determination of cell death were performed as described (Hsu, et al.). Transfected NIH 3T3 cells were washed with PBS, fixed in PBS containing 3% paraformaldehyde for 10 min at 4° C., and washed with PBS. Fixed cells were stained overnight with XGal. The number of blue-stained cells was determined microscopically. The average number from one representative experiment of three is shown.

c-Jun = biological target: T1, c-Jun (Homo sapiens, UniProt P05412); experiment: Coimmunoprecipitation / in vitro pull down with c-Jun; assay type: binding
T1 construct: expressed in transfected cells; host or cells: 293T cells (co-IP); in vitro translated, 35S-labelled c-Jun in the pull-down
Procedure: FIG. 21(A) 293T cells were transfected with c-Jun and myc-KRCtr. 48 hours later, lysates were immunoprecipitated with anti-Myc antibody. Immunoprecipitates were probed by western blotting with anti-c-Jun antibody. FIG. 21(B) (left panel) 293T cells were cotransfected with c-Jun and full length His-KRC. 48 hours later, lysates were immunoprecipitated with anti-His antibody (DE8 Omniprobe) and precipitates were probed by western blotting with anti-c-Jun antibody. (right panel) In vitro translated and S35-labelled c-Jun and His-KRCtr were mixed and immunoprecipitated with anti-His antibody. Recovered c-Jun protein was visualized by autoradiography. FIG. 21(C) Jurkat or EL4 T cells were stimulated with PMA plus ionomycin for 45 minutes. Lysates were immunoprecipitated with anti-c-Jun antibody, and immunoprecipitates were probed with specific anti-KRC rabbit antisera. FIG. 21(D) (upper panel) 293T cells were transfected with AP-1 Luciferase along with c-Jun, c-Fos, and KRC. 24 hours later, Luciferase activity was determined as above. (lower panel) 293T cells were transfected with GAL4 Luciferase along with GAL4, GAL4-c-Jun 1-224, or GAL4-c-Fos 208-313. 24 hours later, luciferase activity was determined as above. […]

T1 sequence (P05412 whole entry): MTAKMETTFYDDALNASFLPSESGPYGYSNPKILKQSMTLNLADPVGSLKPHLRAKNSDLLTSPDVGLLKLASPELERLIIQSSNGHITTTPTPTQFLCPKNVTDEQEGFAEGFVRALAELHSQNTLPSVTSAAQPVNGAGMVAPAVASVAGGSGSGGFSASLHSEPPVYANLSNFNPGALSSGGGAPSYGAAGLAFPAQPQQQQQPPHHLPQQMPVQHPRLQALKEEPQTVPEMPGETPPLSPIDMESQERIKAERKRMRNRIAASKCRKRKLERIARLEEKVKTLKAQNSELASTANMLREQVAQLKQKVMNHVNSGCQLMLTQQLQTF

| Molecule | KRC transactivation of the AP-1 reporter (AP-1) | KRC transactivation of the AP-1 reporter (AP-1; listed as rottlerin) | TRAF2-dependent JNK activation (JNK) | NFκB activation induced by TRAF5 and TRAF6 (NFκB; 293T cells) | NFkB-dependent transactivation (NFκB; 293T cells, absence of exogenous TRAFs) | TRAF2-induced NFκB activation (NFκB; 293T cells, exogenous TRAF2) | TNFα-induced NFκB activation (NFκB; 293 cells, 10 ng/ml TNFα 4 hours) | TNFα-induced apoptosis (TNF mediated cytotoxicity) (NIH 3T3 cells) | physical association with c-Jun (c-Jun) | physical association with c-Jun (c-Jun; listed as KRCtr) |
| --- | --- | --- | --- | --- | --- | --- | --- | --- | --- | --- |
| CC(=O)c1c(O)c(C)c(O)c(Cc2c(O)c3c(c(C(=O)/C=C/c4ccccc4)c2O)OC(C)(C)C=C3)c1O [Rottlerin] | blocked | abolished the ability of KRC to enhance AP-1 transactivation | – | – | – | – | – | – | – | – |
| RasN17: dominant negative Ras | abolished the ability of KRC to enhance AP-1 transactivation | – | – | – | – | – | – | – | – | – |
| B1 | – | – | blocked TRAF2-dependent JNK activation | substantially but not completely affected | blocked NFkB-dependent transactivation | blocked TRAF2-induced NFκB activation | strongly inhibited TNFα-induced NFκB activation | The same effect was observed | physically associated with c-Jun | interacted with c-Jun |
